B1: Hairpin Ribozyme (parent)
chain: GUCCUCUUUCACGUGCGCGUGAAAGAGAGAAGUGAACCAGAGAAACACACGUUGUGGUAUAUUACCUGGUA

In this series the parent is B1. The series is described as follows: self-cleavage, relative activity (ratio to wild type); higher = more cleavage; co-transcriptional.
On to U20C G69U, for which the self-cleavage is 0.23. The result for G21A U67A reads 0.23; that for G21A U67C, 0.248. The result for G21C A26G reads 0.528; that for G21C G25C, 0.238. The result for U20G A23C reads 0.83; that for A22C G57C, 0.117; that for A22C G57U, 0.162. G21C G40A: the self-cleavage stood at 0.258. In the case of U20G A41G, the self-cleavage was 0.687. The result for G21U C48U reads 0.101; that for G21U C48A, 0.122; that for G21U C48G, 0.132.

For G21A G34C, the self-cleavage amounted to 1.11. The result for G21C A47G reads 0.157; that for G21A G51A, 1.04; that for G21A G51C, 0.771. The result for G21A G51U reads 0.99; that for A22C U33G, 0.0647. As to U20G C48U, the self-cleavage is 0.228. The result for G21A A30G reads 0.238; that for G21A A30U, 0.144; that for U20C G25C, 0.513. The result for U20C G25U reads 0.576; that for U20G A71C, 1.25; that for G21C U70A, 0.779. The result for G21C U70C reads 0.965; that for A22G A26G, 1.09; that for A22C U55A, 0.217. Regarding G21U A61G, the self-cleavage is 0.245. The result for G21U G51A reads 0.822. Take U20C A36U: the self-cleavage came to 0.529.

As for U20C A36C, the self-cleavage was determined as 0.526.

In the case of A22G A43C, the self-cleavage worked out at 0.158. The result for A22G A43U reads 0.0762.

Regarding A22G A43G, the self-cleavage was found to be 0.121. The result for U20G G25A reads 0.469; that for U20G U63G, 0.265; that for U20G U63C, 0.255. As for U20G U63A, the self-cleavage came to 0.171. Regarding G21A A35U, the self-cleavage amounted to 0.653. The result for G21U reads 0.844; that for G21A, 0.809; that for G21C, 0.812. The result for A22G A35C reads 0.715; that for A22C A28G, 0.807; that for G21U G56U, 0.147. The result for G21U G56A reads 0.178.

For G21A U58C, the self-cleavage stood at 0.916. The result for G21A U58A reads 0.533; that for A22C G56A, 0.165; that for G21U A31U, 0.0962.

For U20G A61U, the self-cleavage came out at 0.142. The result for G21U A26G reads 0.708. For G21U A26U, the self-cleavage turned out to be 0.561. Consider A22G A28U, for which the self-cleavage was determined as 0.673.

Regarding A22G A28C, the self-cleavage worked out at 0.689. The result for G21A G40C reads 0.169; that for G21A G40A, 0.312; that for G21C U33G, 0.238.

As to G21C U33C, the self-cleavage turned out to be 0.145. The result for U20G A28C reads 0.462; that for U20G A28G, 1.01. The result for U20G U58G reads 0.835.

For the variant U20A U70G, the self-cleavage was determined as 0.651. Turning to U20A U70A, the self-cleavage is 0.784. The result for A22C A36G reads 1.05; that for G21C A39C, 0.463; that for U20C U53C, 0.998. The result for A22C A31U reads 0.108; that for A22C A31C, 0.16. The result for A22C A31G reads 0.642; that for U20G G57C, 0.123; that for G21C A28G, 0.852. On to G21C A28C, for which the self-cleavage is 0.412. The result for G21A A39G reads 0.306; that for G21A A41G, 0.765. The result for G21A A41C reads 0.761; that for G21C G69U, 0.155. The result for A22C A26G reads 0.557; that for G21A A24C, 0.563. With G21A A24G, the self-cleavage was found to be 0.576. For the variant U20C G27U, the self-cleavage was 0.181. The result for G21C G34A reads 1.02; that for G21A A23C, 0.683.

Regarding G21A A23G, the self-cleavage is 0.707. The result for G21A A23U reads 0.825; that for A22C A71C, 1.26; that for G21U C37G, 0.32. Regarding G21A G27C, the self-cleavage is 0.195. Regarding G21A G27A, the self-cleavage came to 0.346. The result for G21A C50G reads 0.217; that for A22C G29A, 0.0644; that for A22C G29U, 0.131. U20C G68A: the self-cleavage stood at 0.251. The result for U20C U60G reads 0.534; that for U20G G21C, 0.75. The result for U20G G21A reads 0.846.

For the variant A22C A24C, the self-cleavage came to 0.233. The result for U20C A61U reads 0.21; that for U20G C37A, 0.186; that for G21A U53G, 0.699. The result for U20G G69C reads 0.284; that for U20G G69U, 0.22.

Regarding U20G G69A, the self-cleavage turned out to be 0.421. As to G21U G25C, the self-cleavage is 0.342. The result for G21U G25U reads 0.461; that for U20G G68A, 0.14; that for G21C G42A, 0.216. The result for G21C G42C reads 0.195. The result for U20C G29A reads 0.181; that for G21C A35G, 0.666; that for G21A G69C, 0.246. In the case of G21A G69U, the self-cleavage was 0.197. Regarding U20G A49G, the self-cleavage stood at 0.364.

Regarding U20G A49C, the self-cleavage came to 0.172. The result for U20C A47C reads 0.358. The result for U20C A47G reads 0.159; that for G21A G29A, 0.166. For A22C U62C, the self-cleavage is 0.196. Consider U20G, for which the self-cleavage is 0.879. The result for U20C reads 0.963. The result for U20G A47C reads 0.299. The result for U20G A47G reads 0.0572; that for U20C A43G, 0.105; that for U20C A49G, 0.524. For G21U A28C, the self-cleavage came out at 0.366. The result for G21U A28G reads 0.98.

On to G21U A47C, for which the self-cleavage was found to be 0.282.

Turning to A22C A49G, the self-cleavage turned out to be 0.512.

U20C U63A: the self-cleavage amounted to 0.116. The result for U20C U63G reads 0.169.

As for A22G A39U, the self-cleavage stood at 0.42. For the variant A22G A39C, the self-cleavage worked out at 0.475. The result for G21U G68C reads 0.187; that for A22C G69C, 0.366; that for A22C A44G, 0.135. The result for A22C A61U reads 0.204; that for A22C A61C, 0.3. The result for U20G U33C reads 0.109. Take A22C A45G: the self-cleavage was 0.15.

Consider U20G G51C, for which the self-cleavage turned out to be 0.572. The result for U20C A30G reads 0.112. The result for U20C G51A reads 1.19. The result for U20C G32A reads 0.274; that for U20C A59G, 0.149. On to U20C A59U, for which the self-cleavage was found to be 0.157. The result for A22G A36C reads 0.515; that for A22G A36U, 0.423.

For U20G A39U, the self-cleavage stood at 0.311. The result for G21A G25A reads 0.239; that for G21A G25C, 0.358; that for A22G A45C, 0.13. The result for U20C G40C reads 0.218; that for U20C U67A, 0.213; that for U20G G56A, 0.0796. As for U20G G56U, the self-cleavage worked out at 0.191. The result for U20C G57U reads 0.341; that for U20C G57A, 0.167.

Consider G21A G56C, for which the self-cleavage stood at 0.2.

Consider G21U U55G, for which the self-cleavage amounted to 0.2.

Turning to G21A C66A, the self-cleavage worked out at 0.201.

In the case of G21C U52G, the self-cleavage was determined as 0.654. The result for G21C G56A reads 0.184; that for U20C C37U, 0.756; that for G21C G27U, 0.2. The result for A22C U67G reads 0.204.

The record behind these values is the RNAGym collection of RNA variant scans (doi:10.7554/elife.80360).
